Assay results from the supplement of paper PMC10065799, “High-throughput profiling of sequence recognition by tyrosine kinases and SH2 domains using bacterial peptide display” (eLife, 2023).

Assays:
[1] = test system: c-Abl (mouse); test: phosphorylation enrichment, bacterial display (enrichment ratio); higher = better substrate or ligand; peptides without Tyr show the background
[2] = target: EPHB2 (UniProt P29323); test: as above
[3] = test system: Fer (mouse); test: as above
[4] = target: Hck (UniProt P08631); test: as above
[5] = target: Fyn (UniProt P06241); test: as above
[6] = target: Jak2 (UniProt O60674); test: as above
[7] = target: MERTK (UniProt Q12866); test: as above
[8] = target: FGFR1 (UniProt P11362); test: as above
[9] = test system: AncSZ; test: as above
[10] = target: EPHB1 (UniProt P54762); test: as above
[11] = target: Fes (UniProt P07332); test: as above
[12] = test system: c-Src; test: as above
[13] = target: FGFR3 (UniProt P22607); test: as above
[14] = target: Grb2 SH2 (UniProt P62993); test: SH2 binding enrichment of the phosphorylated peptide, bacterial display (enrichment ratio); higher = better substrate or ligand; peptides without Tyr show the background
[15] = target: c-Src SH2; test: as above
[16] = target: SHP2-C SH2; test: as above
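Wherever SH2 binding enrichment of the phosphorylated peptide, bacterial display is given: peptide library displayed on the E. coli surface as eCPX fusions, selected cells deep-sequenced, score is each peptide's frequency after selection divided by its frequency in the input.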
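Wherever phosphorylation enrichment, bacterial display is given: 11-residue human phosphosite peptides and single-mutation variants displayed on the E. coli surface, counted by deep sequencing, each peptide's frequency after selection divided by its frequency in the unselected input library; frequency after pTyr selection over input frequency; kinase dosed for 20-30% of maximal phosphorylation in three min.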

Fyn, sequence (P06241 whole entry, looked up): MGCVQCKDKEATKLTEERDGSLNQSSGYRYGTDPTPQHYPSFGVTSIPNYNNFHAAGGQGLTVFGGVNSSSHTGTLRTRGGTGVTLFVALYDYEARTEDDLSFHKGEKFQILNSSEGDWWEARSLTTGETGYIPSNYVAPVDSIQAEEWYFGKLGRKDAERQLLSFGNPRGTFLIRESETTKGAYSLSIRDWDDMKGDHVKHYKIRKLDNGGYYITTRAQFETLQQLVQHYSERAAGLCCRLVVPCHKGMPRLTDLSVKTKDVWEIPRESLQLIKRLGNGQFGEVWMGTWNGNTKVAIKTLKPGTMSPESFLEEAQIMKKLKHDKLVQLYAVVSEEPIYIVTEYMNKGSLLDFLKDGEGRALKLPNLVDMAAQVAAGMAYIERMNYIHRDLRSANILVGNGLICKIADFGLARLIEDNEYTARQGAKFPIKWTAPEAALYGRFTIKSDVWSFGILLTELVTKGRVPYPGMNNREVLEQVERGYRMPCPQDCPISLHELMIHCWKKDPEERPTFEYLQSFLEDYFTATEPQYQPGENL
Grb2 SH2, sequence (P62993 whole entry, looked up): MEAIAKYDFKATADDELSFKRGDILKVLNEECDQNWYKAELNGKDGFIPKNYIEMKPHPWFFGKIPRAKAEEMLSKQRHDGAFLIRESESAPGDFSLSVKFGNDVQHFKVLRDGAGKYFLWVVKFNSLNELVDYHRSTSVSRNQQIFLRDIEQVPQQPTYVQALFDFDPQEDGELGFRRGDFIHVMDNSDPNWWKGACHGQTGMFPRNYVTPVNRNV
EPHB2, sequence (P29323 whole entry, looked up): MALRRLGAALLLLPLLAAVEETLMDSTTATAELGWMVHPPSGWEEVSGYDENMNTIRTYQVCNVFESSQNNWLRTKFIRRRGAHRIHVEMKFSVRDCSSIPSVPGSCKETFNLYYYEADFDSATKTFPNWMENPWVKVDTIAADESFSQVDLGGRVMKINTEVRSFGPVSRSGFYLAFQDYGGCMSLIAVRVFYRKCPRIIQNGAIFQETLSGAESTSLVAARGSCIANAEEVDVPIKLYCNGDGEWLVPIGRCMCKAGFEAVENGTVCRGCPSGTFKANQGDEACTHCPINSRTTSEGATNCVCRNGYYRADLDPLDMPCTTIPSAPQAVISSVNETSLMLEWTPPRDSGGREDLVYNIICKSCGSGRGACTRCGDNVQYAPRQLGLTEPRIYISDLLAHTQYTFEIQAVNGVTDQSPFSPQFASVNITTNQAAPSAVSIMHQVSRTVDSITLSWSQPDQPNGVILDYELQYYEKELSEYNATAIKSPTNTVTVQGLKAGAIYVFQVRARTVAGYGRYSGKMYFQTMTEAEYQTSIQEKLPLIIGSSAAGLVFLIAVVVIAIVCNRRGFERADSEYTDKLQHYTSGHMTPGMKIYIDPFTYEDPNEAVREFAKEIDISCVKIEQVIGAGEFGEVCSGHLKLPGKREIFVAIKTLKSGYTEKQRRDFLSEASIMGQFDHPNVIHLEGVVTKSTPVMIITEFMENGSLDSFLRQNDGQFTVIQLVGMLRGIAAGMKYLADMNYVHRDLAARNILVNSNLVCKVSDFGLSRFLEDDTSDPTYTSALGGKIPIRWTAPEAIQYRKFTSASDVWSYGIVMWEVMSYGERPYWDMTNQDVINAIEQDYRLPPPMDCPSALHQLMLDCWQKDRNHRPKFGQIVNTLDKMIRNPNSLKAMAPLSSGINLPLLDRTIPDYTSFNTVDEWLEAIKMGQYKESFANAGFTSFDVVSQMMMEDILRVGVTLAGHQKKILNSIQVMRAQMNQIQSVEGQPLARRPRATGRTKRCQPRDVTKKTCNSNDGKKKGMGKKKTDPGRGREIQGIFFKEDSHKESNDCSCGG
EPHB1, sequence (P54762 whole entry, looked up): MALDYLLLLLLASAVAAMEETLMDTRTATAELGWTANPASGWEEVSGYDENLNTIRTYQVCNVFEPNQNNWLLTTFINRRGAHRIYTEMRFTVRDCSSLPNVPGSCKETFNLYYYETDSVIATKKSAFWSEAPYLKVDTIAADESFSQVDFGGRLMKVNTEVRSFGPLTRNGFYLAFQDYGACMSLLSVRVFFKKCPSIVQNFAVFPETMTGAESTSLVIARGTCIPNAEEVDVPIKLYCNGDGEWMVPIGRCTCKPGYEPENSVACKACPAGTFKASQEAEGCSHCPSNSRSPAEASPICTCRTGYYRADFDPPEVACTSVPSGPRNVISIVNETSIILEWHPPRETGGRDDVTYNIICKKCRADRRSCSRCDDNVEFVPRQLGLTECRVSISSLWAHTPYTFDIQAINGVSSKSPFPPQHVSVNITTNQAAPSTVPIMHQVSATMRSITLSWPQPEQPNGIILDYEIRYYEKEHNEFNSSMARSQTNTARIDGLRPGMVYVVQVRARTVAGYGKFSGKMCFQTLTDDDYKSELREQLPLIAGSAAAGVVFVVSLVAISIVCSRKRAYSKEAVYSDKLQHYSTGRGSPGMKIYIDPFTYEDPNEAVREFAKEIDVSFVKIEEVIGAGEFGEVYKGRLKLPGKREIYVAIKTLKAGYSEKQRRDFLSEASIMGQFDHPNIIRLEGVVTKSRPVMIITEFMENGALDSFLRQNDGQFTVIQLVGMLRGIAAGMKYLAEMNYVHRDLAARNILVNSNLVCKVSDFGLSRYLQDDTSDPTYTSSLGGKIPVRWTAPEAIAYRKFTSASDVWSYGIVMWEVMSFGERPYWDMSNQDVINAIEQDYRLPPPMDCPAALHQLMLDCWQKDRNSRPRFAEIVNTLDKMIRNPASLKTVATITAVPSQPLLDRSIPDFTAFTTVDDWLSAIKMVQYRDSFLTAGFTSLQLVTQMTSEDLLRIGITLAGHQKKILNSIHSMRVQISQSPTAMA
MERTK, sequence (Q12866 whole entry, looked up): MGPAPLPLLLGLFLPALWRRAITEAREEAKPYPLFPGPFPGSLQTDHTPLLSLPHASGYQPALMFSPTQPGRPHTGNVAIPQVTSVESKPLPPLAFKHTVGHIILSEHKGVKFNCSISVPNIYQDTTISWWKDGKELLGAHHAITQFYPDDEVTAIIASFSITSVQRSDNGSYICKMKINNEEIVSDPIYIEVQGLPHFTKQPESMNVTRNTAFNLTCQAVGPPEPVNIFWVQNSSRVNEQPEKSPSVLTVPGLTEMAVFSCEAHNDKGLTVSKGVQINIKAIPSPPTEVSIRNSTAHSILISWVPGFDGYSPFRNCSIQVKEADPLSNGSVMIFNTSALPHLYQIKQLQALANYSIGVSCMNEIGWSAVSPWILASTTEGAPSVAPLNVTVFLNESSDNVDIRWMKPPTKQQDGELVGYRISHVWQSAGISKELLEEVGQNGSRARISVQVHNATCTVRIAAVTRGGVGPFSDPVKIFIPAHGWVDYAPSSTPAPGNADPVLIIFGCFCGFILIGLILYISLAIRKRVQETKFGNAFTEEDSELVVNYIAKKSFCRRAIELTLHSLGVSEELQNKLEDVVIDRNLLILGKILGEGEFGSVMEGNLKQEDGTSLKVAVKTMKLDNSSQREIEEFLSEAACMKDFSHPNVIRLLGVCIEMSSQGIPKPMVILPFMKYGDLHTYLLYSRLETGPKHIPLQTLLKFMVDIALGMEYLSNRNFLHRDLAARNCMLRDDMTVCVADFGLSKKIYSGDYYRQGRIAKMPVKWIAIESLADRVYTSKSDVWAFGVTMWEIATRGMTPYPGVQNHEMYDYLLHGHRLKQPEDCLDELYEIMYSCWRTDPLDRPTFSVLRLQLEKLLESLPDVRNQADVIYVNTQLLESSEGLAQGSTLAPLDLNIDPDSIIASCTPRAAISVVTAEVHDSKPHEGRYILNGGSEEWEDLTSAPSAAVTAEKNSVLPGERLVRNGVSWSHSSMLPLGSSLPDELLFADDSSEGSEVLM
FGFR1, sequence (P11362 whole entry, looked up): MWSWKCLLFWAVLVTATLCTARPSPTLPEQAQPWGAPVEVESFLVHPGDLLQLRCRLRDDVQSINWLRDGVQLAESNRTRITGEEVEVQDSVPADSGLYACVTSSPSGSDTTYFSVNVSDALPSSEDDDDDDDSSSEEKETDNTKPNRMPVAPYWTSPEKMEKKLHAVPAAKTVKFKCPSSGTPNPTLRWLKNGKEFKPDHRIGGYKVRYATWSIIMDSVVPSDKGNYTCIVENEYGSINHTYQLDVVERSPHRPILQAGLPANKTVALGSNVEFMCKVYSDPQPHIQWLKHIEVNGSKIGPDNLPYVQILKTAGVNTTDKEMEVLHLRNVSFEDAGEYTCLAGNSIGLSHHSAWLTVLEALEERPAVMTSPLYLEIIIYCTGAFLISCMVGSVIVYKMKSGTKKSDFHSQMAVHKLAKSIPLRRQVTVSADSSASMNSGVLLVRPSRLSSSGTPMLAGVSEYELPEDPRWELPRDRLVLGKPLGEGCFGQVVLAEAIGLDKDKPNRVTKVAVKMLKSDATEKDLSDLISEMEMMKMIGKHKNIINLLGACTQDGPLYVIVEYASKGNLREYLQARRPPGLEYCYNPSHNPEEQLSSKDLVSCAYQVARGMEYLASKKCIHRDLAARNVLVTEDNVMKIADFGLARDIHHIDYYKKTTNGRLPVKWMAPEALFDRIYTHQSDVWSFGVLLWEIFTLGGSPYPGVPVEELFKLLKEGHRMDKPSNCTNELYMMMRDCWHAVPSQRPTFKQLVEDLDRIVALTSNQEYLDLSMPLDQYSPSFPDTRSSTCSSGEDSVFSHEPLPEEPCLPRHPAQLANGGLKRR

## NLSVHYDSSLK [ABCC8_Y1353_R1352H]
[1]
  phosphorylation enrichment: 0.548
[2]
  phosphorylation enrichment: 0.82
[3]
  phosphorylation enrichment: 0.437
[4]
  phosphorylation enrichment: 0.453
[5]
  phosphorylation enrichment: 0.424
[6]
  phosphorylation enrichment: 0.612
[7]
  phosphorylation enrichment: 0.339
[8]
  phosphorylation enrichment: 0.522
[9]
  phosphorylation enrichment: 0.952
[10]
  phosphorylation enrichment: 0.579
[11]
  phosphorylation enrichment: 0.922
[12]
  phosphorylation enrichment: 0.342
[13]
  phosphorylation enrichment: 0.603
[14]
  SH2 binding enrichment: 0.793
[15]
  SH2 binding enrichment: 0.509
[16]
  SH2 binding enrichment: 0.547

## NLTVNYKKNLT [SQOR_Y259_I264T]
[1]
  phosphorylation enrichment: 1.03
[2]
  phosphorylation enrichment: 0.629
[3]
  phosphorylation enrichment: 0.503
[4]
  phosphorylation enrichment: 0.539
[5]
  phosphorylation enrichment: 0.608
[6]
  phosphorylation enrichment: 1.05
[7]
  phosphorylation enrichment: 0.547
[8]
  phosphorylation enrichment: 0.376
[9]
  phosphorylation enrichment: 0.883
[10]
  phosphorylation enrichment: 0.429
[11]
  phosphorylation enrichment: 1.24
[12]
  phosphorylation enrichment: 0.502
[13]
  phosphorylation enrichment: 0.615
[14]
  SH2 binding enrichment: 0.93
[15]
  SH2 binding enrichment: 0.381
[16]
  SH2 binding enrichment: 0.482

## NNIDYYKNTTN [FGFR2_Y657_K659N]
[1]
  phosphorylation enrichment: 0.446
[2]
  phosphorylation enrichment: 0.473
[3]
  phosphorylation enrichment: 0.648
[4]
  phosphorylation enrichment: 0.512
[5]
  phosphorylation enrichment: 0.417
[6]
  phosphorylation enrichment: 0.596
[7]
  phosphorylation enrichment: 0.32
[8]
  phosphorylation enrichment: 0.552
[9]
  phosphorylation enrichment: 0.756
[10]
  phosphorylation enrichment: 0.359
[11]
  phosphorylation enrichment: 0.745
[12]
  phosphorylation enrichment: 0.387
[13]
  phosphorylation enrichment: 0.605
[14]
  SH2 binding enrichment: 1.27
[15]
  SH2 binding enrichment: 0.546
[16]
  SH2 binding enrichment: 0.73

## NNRVFYDNSDR [RS1_Y177_G178D]
[1]
  phosphorylation enrichment: 0.453
[2]
  phosphorylation enrichment: 0.442
[3]
  phosphorylation enrichment: 0.471
[4]
  phosphorylation enrichment: 0.4
[5]
  phosphorylation enrichment: 0.45
[6]
  phosphorylation enrichment: 0.499
[7]
  phosphorylation enrichment: 0.42
[8]
  phosphorylation enrichment: 0.435
[9]
  phosphorylation enrichment: 0.603
[10]
  phosphorylation enrichment: 0.412
[11]
  phosphorylation enrichment: 0.628
[12]
  phosphorylation enrichment: 0.409
[13]
  phosphorylation enrichment: 0.471
[14]
  SH2 binding enrichment: 0.883
[15]
  SH2 binding enrichment: 0.675
[16]
  SH2 binding enrichment: 0.744

## NNVEQYQAMVT [TPR_Y965_S960N]
[1]
  phosphorylation enrichment: 0.683
[2]
  phosphorylation enrichment: 0.634
[3]
  phosphorylation enrichment: 0.528
[4]
  phosphorylation enrichment: 0.551
[5]
  phosphorylation enrichment: 0.542
[6]
  phosphorylation enrichment: 0.779
[7]
  phosphorylation enrichment: 0.523
[8]
  phosphorylation enrichment: 0.581
[9]
  phosphorylation enrichment: 1.08
[10]
  phosphorylation enrichment: 0.599
[11]
  phosphorylation enrichment: 1.14
[12]
  phosphorylation enrichment: 0.485
[13]
  phosphorylation enrichment: 0.721
[14]
  SH2 binding enrichment: 0.67
[15]
  SH2 binding enrichment: 0.754
[16]
  SH2 binding enrichment: 0.765

## NPPGMHPVTGP [LPP_Y346_Y346H]
[1]
  phosphorylation enrichment: 0.997
[2]
  phosphorylation enrichment: 0.332
[3]
  phosphorylation enrichment: 0.286
[4]
  phosphorylation enrichment: 0.28
[5]
  phosphorylation enrichment: 0.353
[6]
  phosphorylation enrichment: 0.474
[7]
  phosphorylation enrichment: 0.35
[8]
  phosphorylation enrichment: 0.361
[9]
  phosphorylation enrichment: 0.534
[10]
  phosphorylation enrichment: 0.299
[11]
  phosphorylation enrichment: 0.516
[12]
  phosphorylation enrichment: 0.358
[13]
  phosphorylation enrichment: 0.331
[14]
  SH2 binding enrichment: 0.861
[15]
  SH2 binding enrichment: 0.45
[16]
  SH2 binding enrichment: 0.747

## NPQKSYFIHLF [WAS_Y83_R86H_YF]
[1]
  phosphorylation enrichment: 0.77
[2]
  phosphorylation enrichment: 0.512
[3]
  phosphorylation enrichment: 0.449
[4]
  phosphorylation enrichment: 0.431
[5]
  phosphorylation enrichment: 0.396
[6]
  phosphorylation enrichment: 1.29
[7]
  phosphorylation enrichment: 0.384
[8]
  phosphorylation enrichment: 0.475
[9]
  phosphorylation enrichment: 0.93
[10]
  phosphorylation enrichment: 0.644
[11]
  phosphorylation enrichment: 1.32
[12]
  phosphorylation enrichment: 0.399
[13]
  phosphorylation enrichment: 0.73
[14]
  SH2 binding enrichment: 1.19
[15]
  SH2 binding enrichment: 0.604
[16]
  SH2 binding enrichment: 1.08

## NPQKSYLIRLY [WAS_Y83_F84L]
[1]
  phosphorylation enrichment: 0.522
[2]
  phosphorylation enrichment: 0.49
[3]
  phosphorylation enrichment: 0.395
[4]
  phosphorylation enrichment: 0.47
[5]
  phosphorylation enrichment: 0.408
[6]
  phosphorylation enrichment: 0.74
[7]
  phosphorylation enrichment: 0.388
[8]
  phosphorylation enrichment: 0.471
[9]
  phosphorylation enrichment: 0.827
[10]
  phosphorylation enrichment: 0.603
[11]
  phosphorylation enrichment: 0.989
[12]
  phosphorylation enrichment: 0.374
[13]
  phosphorylation enrichment: 0.65
[14]
  SH2 binding enrichment: 1.22
[15]
  SH2 binding enrichment: 0.874
[16]
  SH2 binding enrichment: 1.15

## NPSYNYEIVNR [DYNC1H1_Y3379]
[1]
  phosphorylation enrichment: 0.562
[2]
  phosphorylation enrichment: 6.48
[3]
  phosphorylation enrichment: 1.26
[4]
  phosphorylation enrichment: 0.737
[5]
  phosphorylation enrichment: 0.479
[6]
  phosphorylation enrichment: 0.656
[7]
  phosphorylation enrichment: 0.725
[8]
  phosphorylation enrichment: 0.552
[9]
  phosphorylation enrichment: 0.898
[10]
  phosphorylation enrichment: 13
[11]
  phosphorylation enrichment: 0.776
[12]
  phosphorylation enrichment: 0.519
[13]
  phosphorylation enrichment: 0.572
[14]
  SH2 binding enrichment: 0.675
[15]
  SH2 binding enrichment: 0.82
[16]
  SH2 binding enrichment: 0.602

## NTFEKYLEEEF [TF_Y669_G671E_YF]
[1]
  phosphorylation enrichment: 0.692
[2]
  phosphorylation enrichment: 0.61
[3]
  phosphorylation enrichment: 0.551
[4]
  phosphorylation enrichment: 0.497
[5]
  phosphorylation enrichment: 0.389
[6]
  phosphorylation enrichment: 1.17
[7]
  phosphorylation enrichment: 0.426
[8]
  phosphorylation enrichment: 0.407
[9]
  phosphorylation enrichment: 1.25
[10]
  phosphorylation enrichment: 0.6
[11]
  phosphorylation enrichment: 1.26
[12]
  phosphorylation enrichment: 0.495
[13]
  phosphorylation enrichment: 0.754
[14]
  SH2 binding enrichment: 0.781
[15]
  SH2 binding enrichment: 0.572
[16]
  SH2 binding enrichment: 0.66

## NTVDFYDLFGG [PTPN11_Y63_G60V_YF]
[1]
  phosphorylation enrichment: 0.576
[2]
  phosphorylation enrichment: 0.618
[3]
  phosphorylation enrichment: 0.953
[4]
  phosphorylation enrichment: 3.05
[5]
  phosphorylation enrichment: 4.46
[6]
  phosphorylation enrichment: 0.926
[7]
  phosphorylation enrichment: 1.23
[8]
  phosphorylation enrichment: 0.458
[9]
  phosphorylation enrichment: 1.06
[10]
  phosphorylation enrichment: 0.576
[11]
  phosphorylation enrichment: 0.951
[12]
  phosphorylation enrichment: 2.56
[13]
  phosphorylation enrichment: 0.644
[14]
  SH2 binding enrichment: 0.997
[15]
  SH2 binding enrichment: 0.665
[16]
  SH2 binding enrichment: 0.812

## NVKGIYAVADV [GSR_Y371_G374A]
[1]
  phosphorylation enrichment: 16.5
[2]
  phosphorylation enrichment: 3.77
[3]
  phosphorylation enrichment: 2.06
[4]
  phosphorylation enrichment: 3.79
[5]
  phosphorylation enrichment: 3.67
[6]
  phosphorylation enrichment: 0.678
[7]
  phosphorylation enrichment: 6.08
[8]
  phosphorylation enrichment: 0.506
[9]
  phosphorylation enrichment: 0.977
[10]
  phosphorylation enrichment: 2.06
[11]
  phosphorylation enrichment: 0.82
[12]
  phosphorylation enrichment: 3.12
[13]
  phosphorylation enrichment: 0.687
[14]
  SH2 binding enrichment: 0.826
[15]
  SH2 binding enrichment: 1.44
[16]
  SH2 binding enrichment: 0.599

## NYGTNYRVGSS [CPO_Y278_K273N]
[1]
  phosphorylation enrichment: 0.372
[2]
  phosphorylation enrichment: 0.681
[3]
  phosphorylation enrichment: 0.719
[4]
  phosphorylation enrichment: 0.465
[5]
  phosphorylation enrichment: 0.463
[6]
  phosphorylation enrichment: 0.441
[7]
  phosphorylation enrichment: 0.368
[8]
  phosphorylation enrichment: 0.357
[9]
  phosphorylation enrichment: 0.458
[10]
  phosphorylation enrichment: 0.493
[11]
  phosphorylation enrichment: 0.503
[12]
  phosphorylation enrichment: 0.425
[13]
  phosphorylation enrichment: 0.389
[14]
  SH2 binding enrichment: 0.924
[15]
  SH2 binding enrichment: 0.55
[16]
  SH2 binding enrichment: 0.639

## PADRAYSWYQH [NDST1_Y711]
[1]
  phosphorylation enrichment: 1.58
[2]
  phosphorylation enrichment: 0.817
[3]
  phosphorylation enrichment: 15.8
[4]
  phosphorylation enrichment: 0.888
[5]
  phosphorylation enrichment: 0.617
[6]
  phosphorylation enrichment: 1.68
[7]
  phosphorylation enrichment: 2.86
[8]
  phosphorylation enrichment: 1.33
[9]
  phosphorylation enrichment: 0.98
[10]
  phosphorylation enrichment: 1.19
[11]
  phosphorylation enrichment: 1.61
[12]
  phosphorylation enrichment: 1.77
[13]
  phosphorylation enrichment: 1.16
[14]
  SH2 binding enrichment: 0.747
[15]
  SH2 binding enrichment: 0.753
[16]
  SH2 binding enrichment: 0.47

## PCNLIYFGEHP [TRPV6_Y201]
[1]
  phosphorylation enrichment: 2.89
[2]
  phosphorylation enrichment: 0.745
[3]
  phosphorylation enrichment: 1.07
[4]
  phosphorylation enrichment: 2.08
[5]
  phosphorylation enrichment: 3.66
[6]
  phosphorylation enrichment: 3.44
[7]
  phosphorylation enrichment: 2.21
[8]
  phosphorylation enrichment: 1.76
[9]
  phosphorylation enrichment: 3.19
[10]
  phosphorylation enrichment: 1.17
[11]
  phosphorylation enrichment: 2.64
[12]
  phosphorylation enrichment: 12.2
[13]
  phosphorylation enrichment: 1.68
[14]
  SH2 binding enrichment: 1.48
[15]
  SH2 binding enrichment: 0.976
[16]
  SH2 binding enrichment: 1.15
